13 molecules from patent publication US20230250168A1 (MABWELL SHANGHAI BIOSCIENCE, published 2023) can be followed below.

In general, Kd refers to the constant that tells how readily two partners part at equilibrium. High values mean a looser complex, low ones a tighter complex. One may read the koff as the first-order rate constant of dissociation. One may read the kon as the second-order rate constant of association. By EC50 (read off the curve) is commonly meant the concentration needed to bring the measured effect to its halfway point.

In assay [1] the target is T1, human CLDN18.2 expressed on cell surfaces (human, UniProt P56856-2 1-261).
T1 construct: whole, on cells; also called CHOK1 cells stably expressing human CLDN18.2
Description: flow cytometry on CHOK1 cells expressing human CLDN18.2, goat anti-human IgG secondary, normalised MFI. The method, then: The chimeric anti-human CLDN18.2 antibodies were diluted 2-fold in gradient from an initial concentration of 100 nM and solutions of each antibody of 16 concentrations were obtained. 10 μl of the solutions of each antibody of each concentration was added to a 384-well plate. CHOK1 cells expressing CLDN18.2 on the cell surface were collected by centrifugation for 5 min at 100 g at room temperature, and the cells were washed with PBS containing 0.5% BSA once and then were centrifuged for 5 min at 100 g at room temperature. The cells were resuspended at a density of about 2×10⁶ cells/ml, and 10 μl was added to each well of the 384-well plate to which the antibody had been added. After incubation for 1 hour at 4° C., fluorescently labeled secondary goat anti-human IgG antibody was added. After continued incubation for 1 hour at 4° C., the mean fluorescence readings of the cell populations were analyzed by a flow cytometer.

Assay [2] deals with T2, antigen human CLDN18.2, His-tagged (human, UniProt P56856-2 1-261, limits assumed).
T2 construct: Recombinant antigen used in the Fortebio assay (His-tagged, captured on NTA probe); also called His-tagged antigen; not shown: His tag
As to the kind of experiment: BLI (Fortebio), His-tagged antigen on NTA probe, 100 nM antibody, 1:1 fit. The procedure:
The binding kinetic parameters of the chimeric antibodies and the humanized antibodies thereof to the antigen human CLDN18.2 were analyzed by a Fortebio (BLITZ pro1.1.0.28) instrument. Before performing the assay, an NTA bioprobe was soaked in PBS for 10 min, and the probe was then placed in PBS containing 100 nM antigen for 300 s to capture the His-tagged antigen. The probe was further subjected to a binding reaction with 100 nM antibody for a binding time of 400 s, and the probe was then transferred to PBS and subjected to a dissociation reaction for 600 s. When the assay was finished, data from which the response value of a blank control had been deducted were fitted to a 1:1 Langmuir binding model using software, and then the kinetic constants for antigen-antibody binding were calculated.

Assay [3] addresses T1, human CLDN18.2 expressed on cell …. As to the kind of experiment: FACS of hybridoma supernatants on CHOK1 cells. The method, then:
Balb/c mice were immunized with CHOK1 cells stably expressing human CLDN18.2 protein on cell surfaces. One month later, sera from the mice were analyzed by flow cytometry (FACS), and spleens were taken from mice having high antibody titers in sera. The spleen cells isolated by standard methods were fused with myeloma cells P3X63Ag8.653 using PEG or electrofusion methods. The fused hybridoma cells were seeded in 384 well plates, and after 10-14 days of culture, supernatants obtained were analyzed by FACS for antibody secretion by the hybridoma cells. Several clones were obtained that were able to bind to CHOK1 cells stably expressing human CLDN18.2 protein on cell surfaces and were not able to bind to CHOK1 cells stably expressing human CLDN18.1 protein on cell surfaces. Single cells of the obtained clones were obtained by Limiting Dilution, and each of the monoclonal hybridoma cell clones obtained after being diluted three times secreted only one antibody.

Assay [4] has the same target. As to the kind of experiment: cell-based or functional assay.
Assay [5] shares this target. As to the kind of experiment: cell-based or functional assay. The source holds these as a separate data set.
The target in assay [6] is T2, antigen human CLDN18.2, His-tagged. Description: SPR (BIAcore), antibody captured by anti-human Fc, antigen as analyte. The method, then: Referring to the instructions provided in the Human Antibody Capture Kit (cat No. BR-1008-39, Lot 10261753) from GE Healthcare, the analytical channel and the control sample channel on a CM5 sensor chip were first saturated and coupled with the maximum amount of anti-human Fc antibody, then buffers containing anti-human CLDN18.2 chimeric antibodies, humanized antibodies or a control antibody IMAB362 at 7.5 μg/ml were allowed to flow through the analytical channel and uniformly distribute. Finally, antigen samples diluted in gradient (the initial concentration was 20 nM and diluted by 1:3 to get 8 concentrations, and the concentration 0.741 nM was set to be repeated) were allowed to flow through both the analytical channel and the sample channel, and the photoreactions upon the binding of antibody to antigen were measured. Subsequently, the association constant Kon and dissociation constant Koff and affinity constant KD of each antibody were finally obtained by instrument software fitting analysis.
(In general: In SPR one partner is held on a chip, and binding of the other changes the refractive index at the surface.)

B1: 43L6-xiIgG (antibody, V domains shown)
VH: QVQLKESGPDLVAPSQSLSLTCSVSGFSLTSYGIHWVRQPPGKGLEWLVVIWSDGRTTYNSGLKSRLSISKDNSKSQVLLKMNSLRTDDTAIYYCVRHPAFGPHAMDYWGQGTSVTVSS
VL: DIVMTQAAPSVPVTPGESVSISCRSSKSLLNSNGNTYLYWFLQRPGQSPQLLIYRMSNLASGVPDRFSGSGSGTDFTLRISRVEAGDVGVYYCMQYLEYPVTFGAGTKLELKR
notes: murine variable regions on human IgG1 / kappa constant regions; also called 43L6 chimeric antibody
Regarding B1, the binding result in assay [1] was “binds”.

B2: 11M23-xiIgG (antibody, V domains shown)
VH: QVQLKESGPDLVAPSQSLSITCTVSGFSLTNYGVHWVRQPPGKGLEWLVVIWSDGRINYNSALKSRLSITKDNSKRQVFLKMNSLQIDDTAIYYCVRHPAFGPHAMDYWGQGISVTVSS
VL: DIVMTQDAPSIPVTPGESVSISCRSSKSLLNSNGNTYLYWFLQRPGQSPHLLLYRMSNPASGAPDRFSGSGSGTEFTLRISRVEAEDVGVYYCMQYLEYPPTFGAGTRLELKR
notes: Murine variable regions on human IgG1 / kappa constant regions; also called 11M23 chimeric antibody
Turning to B2, in assay [2], the Kd was 0.293 nM, the Response amounted to 0.184, the off-rate constant (koff) is 0.000107 s⁻¹ and the association rate constant (kon) amounted to 366000 M⁻¹ s⁻¹.

B3: murine antibody 43L6 (antibody, V domains shown)
VH: QVQLKESGPDLVAPSQSLSLTCSVSGFSLTSYGIHWVRQPPGKGLEWLVVIWSDGRTTYNSGLKSRLSISKDNSKSQVLLKMNSLRTDDTAIYYCVRHPAFGPHAMDYWGQGTSVTVSS
VL: DIVMTQAAPSVPVTPGESVSISCRSSKSLLNSNGNTYLYWFLQRPGQSPQLLIYRMSNLASGVPDRFSGSGSGTDFTLRISRVEAGDVGVYYCMQYLEYPVTFGAGTKLELK
notes: Mouse hybridoma antibody (supernatant)
On to B3, for which the binding result in assay [3] is given as “binds”.

B4: 11M23-hz00 (antibody, human IgG1, V domains shown)
VH: QVQLVESGGGVVQPGRSLRLSCAASGFSLTNYGVHWVRQAPGKGLEWVAVIWSDGRINYNSALKSRFTISRDNSKNTLYLQMNSLRAEDTAVYYCARHPAFGPHAMDYWGQGTLVTVSS
VL: DIVMTQSPLSLPVTPGEPASISCRSSKSLLNSNGNTYLYWYLQKPGQSPQLLIYRMSNPASGVPDRFSGSGSGTDFTLKISRVEAEDVGVYYCMQYLEYPPTFGAGTKLEIK
notes: Humanized (direct CDR graft)
As to B4, in assay [2], the Kd is 1.49 nM, the Response came out at 0.164, the koff was determined as 0.000324 s⁻¹ and the kon came to 218000 M⁻¹ s⁻¹.

B5: 11M23-hz11 (antibody, V domains shown)
VH: QVQLVESGGGVVQPGRSLRLSCAASGFSLTNYGVHWVRQAPGKGLEWVAVIWSDGRINYNSALKSRFTISKDNSKNTLYLQMNSLRAEDTAVYYCARHPAFGPHAMDYWGQGTLVTVSS
VL: DIVMTQSPLSLPVTPGEPASISCRSSKSLLNSNGNTYLYWFLQKPGQSPQLLIYRMSNPASGVPDRFSGSGSGTDFTLKISRVEAEDVGVYYCMQYLEYPPTFGAGTKLEIK
B5: in assay [2], the equilibrium dissociation constant (Kd) worked out at 1.29 nM, the Response amounted to 0.174, the koff worked out at 0.00046 s⁻¹ and the kon amounted to 356000 M⁻¹ s⁻¹.

B6: 11M23-hz22 (antibody, V domains shown)
VH: QVQLVESGGGVVQPGRSLRLSCAASGFSLTNYGVHWVRQAPGKGLEWVAVIWSEGRINYQSALKSRFTISKDNSKNTLYLQMNSLRAEDTAVYYCARHPAFGPHAMDYWGQGTLVTVSS
VL: DIVMTQSPLSLPVTPGEPASISCRSSKSLLSSSGNTYLYWFLQKPGQSPQLLIYRMSNPASGVPDRFSGSGSGTDFTLKISRVEAEDVGVYYCMQYLEYPPTFGAGTKLEIK
In assay [2], B6 showed a Kd of 2.92 nM, a Response of 0.136, a koff of 0.00195 s⁻¹ and a kon of 670000 M⁻¹ s⁻¹.

B7: 46J05-xiIgG (antibody, V domains shown)
VH: DVQLVESGGGLVQPGGSRKLSCAASGFTFSRFGMHWVRQAPKKGLEWVAYISSGSNTIYYADTVKGRFTISRDNPKNTLFLQTTSLRSEDTAIYYCGRLGFYGNSFDHWGQGTLVTVSA
VL: NILMTQSPSSLTVTAGEKVTMNCKSSQSLLNGGNQRNYLTWYQQKAGQPPKLLIYWASTRESGVPDRFTGGGSGTDFTLTISSVQAEDLALYYCQNSYYYPLTFGAGTKLELKR
notes: murine variable regions on human IgG1 / kappa constant regions; also called 46J05 chimeric antibody
With B7, the binding result in assay [1] was “binds”.

B8: 48G12-xiIgG (antibody, V domains shown)
VH: EVQLRQSGPELVKPGASVKMSCKASGYTFTTYIINWVKQKPGQGLEWIGYINPYNDDTRYNERVKGKATLTSDKSSSTAYMELSSLTSEDSAVYYCARFYFGNSFTYWGQGTLVTVSA
VL: DIVMTQSPSSLPVTVGERVTMTCKSSQGLFNSGNQRNYLTWYQQKPGQPPKLLIYWASTRESGVPDRFTGSGSGTDFTLTISSVQAEDLAIYYCQNNYIYPLTFGAGTKLELKR
notes: murine variable regions on human IgG1 / kappa constant regions; also called 48G12 chimeric antibody
Take B8: in assay [1], the binding result is given as “binds”.

B9: 50C14-xiIgG (antibody, V domains shown)
VH: EVQLRQSGPELVKPGASVKMSCKASGYTFTTYIINWVKQKPGQGLEWIGYINPYNDGTRYNERVKGKATLTSDKSSSTAYMELSSLTSEDSAVYYCARFHFGNSFTYWGQGTLVTVSA
VL: DIVMTQSPSSLPVTTGEKVTMTCKSSQGLFNNGNQRNYLTWYQQKPGQPPKLLIYWASTRESGVPDRFIGSGSGTDFTLTISSVQAEDLAIYYCQNNYIFPLTFGAGTKLELKR
notes: murine variable regions on human IgG1 / kappa constant regions; also called 50C14 chimeric antibody
For B9, the binding result in assay [1] is listed as “binds”.

B10: murine antibody 20L17 (antibody, V domains shown)
VH: DVQLVESGGGLVQPGGSRKLSCAASGFTFSSFGMHWVRQAPEKGLEWVAYISSGSSTIYYPDTVKGRFTVSRDNPKNTLFLQMTSLRSEDTAMYYCVRLGPRGNVMDHWGQGTSVTVSS
VL: DIVMTQSPSSLTVTAGEKVTMSCKSSQSLLNSGNQRNYLTWYQQKPGQPPKLLIYWASTRESGVPDRFTGSGSGTDFTLTISSVQAEDLAVYYCQNVYFYPLTFGTGTKLELR
notes: as for B3
Turning to B10, in assay [3], the binding result is on record as “binds”.

B11: IMAB362 (antibody, human IgG1, kappa, V domains shown)
VH: QVQLQQPGAELVRPGASVKLSCKASGYTFTSYWINWVKQRPGQGLEWIGNIYPSDSYTNYNQKFKDKATLTVDKSSSTAYMQLSSPTSEDSAVYYCTRSWRGNSFDYWGQGTTLTVSS
VL: DIVMTQSPSSLTVTAGEKVTMSCKSSQSLLNSGNQKNYLTWYQQKPGQPPKLLIYWASTRESGVPDRFTGSGSGTDFTLTISSVQAEDLAVYYCQNDYSYPFTFGSGTKLEIKR
notes: Chimeric anti-CLDN18.2 antibody of Ganymed, used as control; also called control antibody IMAB362
Take B11: in assay [4], the “CDC EC50, BxPC3 cells stably expressing human CLDN18.2 (CCK-8)” value turned out to be 52.2 nM; the “CDC EC50, CHOK1 cells stably expressing human CLDN18.2 (CCK-8)” value stood at 30.4 nM; the “CDC EC50, NCI-N87 cells stably expressing human CLDN18.2 (CCK-8)” value came out at 474 nM. In assay [5], the “ADCC reporter EC50 (Jurkat NFAT-luciferase effector cells), BxPC3 target cells” value was 0.106 nM; the “ADCC reporter EC50 (Jurkat NFAT-luciferase effector cells), CHOK1 target cells” value was found to be 0.593 nM; the “ADCC reporter EC50 (Jurkat NFAT-luciferase effector cells), NCI-N87 target cells” value was 0.0909 nM. In assay [6], binding was put at a Kd of 136 nM, the koff was 0.201 s⁻¹ and the kon came out at 1.48e+06 M⁻¹ s⁻¹.

B12: 20L17-xiIgG (antibody, V domains shown)
VH: DVQLVESGGGLVQPGGSRKLSCAASGFTFSSFGMHWVRQAPEKGLEWVAYISSGSSTIYYPDTVKGRFTVSRDNPKNTLFLQMTSLRSEDTAMYYCVRLGPRGNVMDHWGQGTSVTVSS
VL: DIVMTQSPSSLTVTAGEKVTMSCKSSQSLLNSGNQRNYLTWYQQKPGQPPKLLIYWASTRESGVPDRFTGSGSGTDFTLTISSVQAEDLAVYYCQNVYFYPLTFGTGTKLELRR
notes: murine variable regions on human IgG1 / kappa constant regions; also called 20L17 chimeric antibody
Consider B12, for which the binding result in assay [1] is recorded as “binds”.

B13: 43B5-xiIgG (antibody, V domains shown)
VH: DVQLQESGPDLVKPSQSLSLTCTVSGYSISGAYNWHWIRQFPGNKLEWLAYMQYSGSSNYNPSFKSRISISRDTSKNQFFLQLKSVTTEDTATYYCARMYNGNSFLYWGQGTLVTVSA
VL: DIVMTQSPSSLTVTAGEKVTMNCKSSQSLFNSGNQKNYLTWYQQKPGQPPRLLIYWASTRESGVPDRFTGSGSGTDFTLTISSVQAEDLSLYYCQNSYSYPLTFGAGTKLELKR
notes: murine variable regions on human IgG1 / kappa constant regions; also called 43B5 chimeric antibody
On to B13, for which, in assay [1], the “EC50 (read off the curve)” value is approximately 1 nM.
